The values below are quoted from earlier work in patent US9782344B2, “Stable glucagon peptide formulations” (ZP Opco, Inc., priority 2013, dated 2017).

Where two headings read alike, the source gives them in different places.

Consider glucagon, for which the “behaviour in aqueous solution” value (pH below 3 or above 9) was “readily dissolved”; the “behaviour in aqueous solution” value (pH between 4 and 8) is “precipitates readily”.
